Laboratory results reported in US20080125498A1 (published 2008).

Biological target: T1, protease-activated receptor 1 (PAR1), rat, endogenous in hippocampal neurons (rat, UniProt P26824 46-432)
T1 sequence (looked up): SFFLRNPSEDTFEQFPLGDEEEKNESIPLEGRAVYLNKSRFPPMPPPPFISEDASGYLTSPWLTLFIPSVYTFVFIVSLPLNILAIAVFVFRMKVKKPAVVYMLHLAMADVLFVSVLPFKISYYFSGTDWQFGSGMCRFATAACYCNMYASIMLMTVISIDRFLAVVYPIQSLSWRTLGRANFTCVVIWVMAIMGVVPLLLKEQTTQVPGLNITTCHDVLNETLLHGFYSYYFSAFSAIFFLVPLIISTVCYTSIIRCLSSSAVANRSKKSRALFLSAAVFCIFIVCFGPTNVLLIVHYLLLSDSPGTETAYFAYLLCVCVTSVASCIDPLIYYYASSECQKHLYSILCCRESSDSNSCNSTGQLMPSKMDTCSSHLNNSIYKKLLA
Test: cell-based or functional assay

potentiation of the response to NMDA plus glycine in CA1 pyramidal cells, 30 micromolar SFLLRN: 1.76 fold
Binder: SFLLRN
